System: coxsackievirus B3 (CVB3-GFP)
Format: cell-based
Conditions: HeLa cells, replicate R1; for Percent Infected R1: GFP-positive cells within RFP-positive gate

B1: TRIM60: human RING type E3 ligase expressed from lentiviral vector (protein, UniProt Q495X7 1-471, looked up)
Tripartite motif-containing …: MEFVTALVNLQEESSCPICLEYLKDPVTINCGHNFCRSCLSVSWKDLDDTFPCPVCRFCFPYKSFRRNPQLRNLTEIAKQLQIRRSKRKRQKENAMCEKHNQFLTLFCVKDLEILCTQCSFSTKHQKHYICPIKKAASYHREILEGSLEPLRNNIERVEKVIILQGSKSVELKKKVEYKREEINSEFEQIRLFLQNEQEMILRQIQDEEMNILAKLNENLVELSDYVSTLKHLLREVEGKSVQSNLELLTQAKSMHHKYQNLKCPELFSFRLTKYGFSLPPQYSGLDRIIKPFQVDVILDLNTAHPQLLVSEDRKAVRYERKKRNICYDPRRFYVCPAVLGSQRFSSGRHYWEVEVGNKPKWILGVCQDCLLRNWQDQPSVLGGFWAIGRYMKSGYVASGPKTTQLLPVVKPSKIGIFLDYELGDLSFYNMNDRSILYTFNDCFTEAVWPYFYTGTDSEPLKICSVSDSER
Percent Infected R1: 54.3% | Z score R1: −0.436

B2: TRIM52: human RING type E3 ligase expressed from lentiviral vector (protein, UniProt Q96A61 1-297, looked up)
E3 ubiquitin-protein ligase …: MAGYATTPSPMQTLQEEAVCAICLDYFKDPVSISCGHNFCRGCVTQLWSKEDEEDQNEEEDEWEEEEDEEAVGAMDGWDGSIREVLYRGNADEELFQDQDDDELWLGDSGITNWDNVDYMWDEEEEEEEEDQDYYLGGLRPDLRIDVYREEEILEAYDEDEDEELYPDIHPPPSLPLPGQFTCPQCRKSFTRRSFRPNLQLANMVQIIRQMCPTPYRGNRSNDQGMCFKHQEALKLFCEVDKEAICVVCRESRSHKQHSVLPLEEVVQEYQEIKLETTLVGILQIEQESIHSKAYNQ
modifications: lentiviral expression
notes: human RING type E3 ligase expressed from lentiviral vector
Percent Infected R1: 67.6% | Z score R1: −0.267

B3: TRIM65: human RING type E3 ligase expressed from lentiviral vector (protein, UniProt Q6PJ69 2-517, looked up)
E3 ubiquitin-protein ligase …: AAQLLEEKLTCAICLGLYQDPVTLPCGHNFCGACIRDWWDRCGKACPECREPFPDGAELRRNVALSGVLEVVRAGPARDPGPDPGPGPDPAARCPRHGRPLELFCRTEGRCVCSVCTVRECRLHERALLDAERLKREAQLRASLEVTQQQATQAEGQLLELRKQSSQIQNSACILASWVSGKFSSLLQALEIQHTTALRSIEVAKTQALAQARDEEQRLRVHLEAVARHGCRIRELLEQVDEQTFLQESQLLQPPGPLGPLTPLQWDEDQQLGDLKQLLSRLCGLLLEEGSHPGAPAKPVDLAPVEAPGPLAPVPSTVCPLRRKLWQNYRNLTFDPVSANRHFYLSRQDQQVKHCRQSRGPGGPGSFELWQVQCAQSFQAGHHYWEVRASDHSVTLGVSYPQLPRCRLGPHTDNIGRGPCSWGLCVQEDSLQAWHNGEAQRLPGVSGRLLGMDLDLASGCLTFYSLEPQTQPLYTFHALFNQPLTPVFWLLEGRTLTLCHQPGAVFPLGPQEEVLS
Percent Infected R1: 56.8% | Z score R1: −0.404

B4: TRIM67: human RING type E3 ligase expressed from lentiviral vector (protein, UniProt Q6ZTA4 1-783, looked up)
Tripartite motif-containing …: MEEELKCPVCGSLFREPIILPCSHNVCLPCARTIAVQTPDGEQHLPQPLLLSRGSGLQAGAAAAASLEHDAAAGPACGGAGGSAAGGLGGGAGGGGDHADKLSLYSETDSGYGSYTPSLKSPNGVRVLPMVPAPPGSSAAAARGAACSSLSSSSSSITCPQCHRSASLDHRGLRGFQRNRLLEAIVQRYQQGRGAVPGTSAAAAVAICQLCDRTPPEPAATLCEQCDVLYCSACQLKCHPSRGPFAKHRLVQPPPPPPPPAEAASGPTGTAQGAPSGGGGCKSPGGAGAGATGGSTARKFPTCPEHEMENYSMYCVSCRTPVCYLCLEEGRHAKHEVKPLGAMWKQHKAQLSQALNGVSDKAKEAKEFLVQLKNILQQIQENGLDYEACLVAQCDALVDALTRQKAKLLTKVTKEREHKLKMVWDQINHCTLKLRQSTGLMEYCLEVIKENDPSGFLQISDALIKRVQVSQEQWVKGALEPKVSAEFDLTLDSEPLLQAIHQLDFIQMKCRVPPVPLLQLEKCCTRNNSVTLAWRMPPFTHSPVDGYILELDDGAGGQFREVYVGKETLCTIDGLHFNSTYNARVKAFNSSGVGPYSKTVVLQTSDVAWFTFDPNSGHRDIILSNDNQTATCSSYDDRVVLGTAAFSKGVHYWELHVDRYDNHPDPAFGVARASVVKDMMLGKDDKAWAMYVDNNRSWFMHCNSHTNRTEGGVCKGATVGVLLDLNKHTLTFFINGQQQGPTAFSHVDGVFMPALSLNRNVQVTLHTGLEVPTNLGRPKLSGN
Percent Infected R1: 58.9% | Z score R1: −0.378

B5: TRIM59: human RING type E3 ligase expressed from lentiviral vector (protein, UniProt Q8IWR1 1-403, looked up)
Tripartite motif-containing …: MHNFEEELTCPICYSIFEDPRVLPCSHTFCRNCLENILQASGNFYIWRPLRIPLKCPNCRSITEIAPTGIESLPVNFALRAIIEKYQQEDHPDIVTCPEHYRQPLNVYCLLDKKLVCGHCLTIGQHHGHPIDDLQSAYLKEKDTPQKLLEQLTDTHWTDLTHLIEKLKEQKSHSEKMIQGDKEAVLQYFKELNDTLEQKKKSFLTALCDVGNLINQEYTPQIERMKEIREQQLELMALTISLQEESPLKFLEKVDDVRQHVQILKQRPLPEVQPVEIYPRVSKILKEEWSRTEIGQIKNVLIPKMKISPKRMSCSWPGKDEKEVEFLKILNIVVVTLISVILMSILFFNQHIITFLSEITLIWFSEASLSVYQSLSNSLHKVKNILCHIFYLLKEFVWKIVSH
Percent Infected R1: 59.5% | Z score R1: −0.37

B6: TRIM49: human RING type E3 ligase expressed from lentiviral vector (protein, UniProt P0CI25 1-452, looked up)
Tripartite motif-containing …: MNSGILQVFQGELICPLCMNYFIDPVTIDCGHSFCRPCFYLNWQDIPFLVQCSECTKSTEQINLKTNIHLKKMASLARKVSLWLFLSSEEQMCGTHRETKKIFCEVDRSLLCLLCSSSQEHRYHRHRPIEWAAEEHREKLLQKMQSLWEKACENHRNLNVETTRTRCWKDYVNLRLEAIRAEYQKMPAFHHEEEKHNLEMLKKKGKEIFHRLHLSKAKMAHRMEILRGMYEELNEMCHKPDVELLQAFGDILHRSESVLLHMPQPLNPELSAGPITGLRDRLNQFRVHITLHHEEANNDIFLYEILRSMCIGCDHQDVPYFTATPRSFLAWGVQTFTSGKYYWEVHVGDSWNWAFGVCNMYRKEKNQNEKIDGKAGLFLLGCVKNDIQCSLFTTSPLMLQYIPKPTSRVGLFLDCEAKTVSFVDVNQSSLIYTIPNCSFSPPLRPIFCCIHF
modifications: lentiviral expression
notes: as for B2
Percent Infected R1: 65.7% | Z score R1: −0.291

B7: TRIM50: human RING type E3 ligase expressed from lentiviral vector (protein, UniProt Q86XT4 1-487, looked up)
E3 ubiquitin-protein ligase …: MAWQVSLPELEDRLQCPICLEVFKEPLMLQCGHSYCKGCLVSLSCHLDAELRCPVCRQAVDGSSSLPNVSLARVIEALRLPGDPEPKVCVHHRNPLSLFCEKDQELICGLCGLLGSHQHHPVTPVSTVYSRMKEELAALISELKQEQKKVDELIAKLVNNRTRIVNESDVFSWVIRREFQELHHLVDEEKARCLEGIGGHTRGLVASLDMQLEQAQGTRERLAQAECVLEQFGNEDHHKFIRKFHSMASRAEMPQARPLEGAFSPISFKPGLHQADIKLTVWKRLFRKVLPAPEPLKLDPATAHPLLELSKGNTVVQCGLLAQRRASQPERFDYSTCVLASRGFSCGRHYWEVVVGSKSDWRLGVIKGTASRKGKLNRSPEHGVWLIGLKEGRVYEAFACPRVPLPVAGHPHRIGLYLHYEQGELTFFDADRPDDLRPLYTFQADFQGKLYPILDTCWHERGSNSLPMVLPPPSGPGPLSPEQPTKL
Percent Infected R1: 57.8% | Z score R1: −0.392

B8: TRIM61: human RING type E3 ligase expressed from lentiviral vector (protein, UniProt Q5EBN2 1-209, looked up)
Putative tripartite …: MEFVTALADLRAEASCPICLDYLKDPVTISCGHNFCLSCIIMSWKDLHDSFPCPFCHFCCPERKFISNPQLGSLTEIAKQLQIRSKKRKRQEEKHVCKKHNQVLTFFCQKDLELLCPRCSLSTDHQHHCVWPIKKAASYHRKKLEEYNAPWKERVELIEKVITMQTRKSLELKKKMESPSVTRLECSCTISAHFNLRLPGSSDSSASGS
Percent Infected R1: 65.8% | Z score R1: −0.29

B9: TRIM62: human RING type E3 ligase expressed from lentiviral vector (protein)
chain: MACSLKDELLCSICLSIYQDPVSLGCEHYFCRRCITEHWVRQEAQGARDCPECRRTFAEPALAPSLKLANIVERYSSFPLDAILNARRAARPCQAHDKVKLFCLTDRALLCFFCDEPALHEQHQVTGIDDAFDELQRELKDQLQALQDSEREHTEALQLLKRQLAETKSSTKSLRTTIGEAFERLHRLLRERQKAMLEELEADTARTLTDIEQKVQRYSQQLRKVQEGAQILQERLAETDRHTFLAGVASLSERLKGKIHETNLTYEDFPTSKYTGPLQYTIWKSLFQDIHPVPAALTLDPGTAHQRLILSDDCTIVAYGNLHPQPLQDSPKRFDVEVSVLGSEAFSSGVHYWEVVVAEKTQWVIGLAHEAASRKGSIQIQPSRGFYCIVMHDGNQYSACTEPWTRLNVRDKLDKVGVFLDYDQGLLIFYNADDMSWLYTFREKFPGKLCSYFSPGQSHANGKNVQPLRINTVRI
Percent Infected R1: 51.3% | Z score R1: −0.474

B10: RNF170: human RING type E3 ligase expressed from lentiviral vector (protein, UniProt Q96K19 1-258, looked up)
E3 ubiquitin-protein ligase …: MAKYQGEVQSLKLDDDSVIEGVSDQVLVAVVVSFALIATLVYALFRNVHQNIHPENQELVRVLREQLQTEQDAPAATRQQFYTDMYCPICLHQASFPVETNCGHLFCGACIIAYWRYGSWLGAISCPICRQTVTLLLTVFGEDDQSQDVLRLHQDINDYNRRFSGQPRSIMERIMDLPTLLRHAFREMFSVGGLFWMFRIRIILCLMGAFFYLISPLDFVPEALFGILGFLDDFFVIFLLLIYISIMYREVITQRLTR
modifications: lentiviral expression
notes: as for B2
Percent Infected R1: 97.3% | Z score R1: 0.11
